One experiment deals with GEP100 (UniProt Q6DN90). The experiment can be described thus: anti-HA (GEP100) IP, anti-V5 (VEGFR2) blot. The following applies: reference: wild type VEGFR2-V5; sites Y951.
A further experiment has as its target GEP100 PH domain (UniProt Q6DN90). The experiment can be described thus: peptide dot-blot overlaid with GST-PH. Particulars: reference: non-phosphorylated Tyr951 peptide; sites Y951.

In the case of VEGFR2 (from UniProt P35968) 951F, in the experiment with GEP100, the “binding against the reference” value is “lost”. Take “VEGFR2 Tyr951 peptide (from UniProt P35968) pY951 peptide”: the “binding against the reference” value in the experiment with GEP100 PH domain is recorded as “gained”.

These data come from article PMC3156124.
